In US20260151519A1 (AKTIS ONCOLOGY, published 2026):
Bridges are numbered along the chain shown (N, C = ends). Primed or numbered codes have the meaning given here. Where no end group is shown, it is not given here. The star is where a group is joined. FITC = O=C1OC2(c3ccc(O)cc3Oc3cc(O)ccc32)c2ccc(NC(=S)*)cc21; DTPA = O=C(O)CN(CCN(CC(=O)O)CC(=O)O)CCN(CC(=O)O)CC(=O)*; Biotin = O=C1N[C@H]2[C@H](CS[C@H]2CCCCC(=O)*)N1; PEG4″ = 4(ethylene glycol)

T1: Human Nectin-4 (human, UniProt Q96NY8 32-349, limits assumed)
T1 construct: Protein immobilised on the SPR chip; also called target protein
T1 sequence: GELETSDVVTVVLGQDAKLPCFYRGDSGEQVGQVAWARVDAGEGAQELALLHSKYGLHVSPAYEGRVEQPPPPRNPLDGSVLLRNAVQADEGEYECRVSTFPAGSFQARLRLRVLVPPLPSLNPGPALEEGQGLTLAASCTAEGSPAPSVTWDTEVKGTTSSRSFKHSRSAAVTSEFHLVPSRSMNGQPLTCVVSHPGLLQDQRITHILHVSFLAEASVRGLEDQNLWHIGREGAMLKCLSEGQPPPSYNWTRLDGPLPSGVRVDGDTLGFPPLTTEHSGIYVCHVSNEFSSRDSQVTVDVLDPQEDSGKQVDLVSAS


Molecular target: T1, Human Nectin-4
Assay: Table 2B (DELFIA or SPR)

| Binder | Kd [nM] |
| --- | --- |
| Ac-CEYDEEFFAGLKRLRGGDICYYIKKKFKKVPDLCIEEILDKLGC-OH (designed binder, disulfide 1-34, 20-44) [C16] | 4.34 |
| Ac-CEYDEEFFAGLHRLRGGDICYYIKKKFPKVPDLCIEEILDKLGC-OH (designed binder, disulfide 1-34, 20-44) [C21] | 49.4 |
| H-CEYDEEFFAGLKRLRGGDICYYIKKKFDKVPDLCIEEILDKLGC-OH (designed binder, disulfide 1-34, 20-44) [C7] | 5.5 |
| Ac-CEYDEEFFNGLKRLRGGDICYYIKKKFKKVPDLCIEEILDKLGC-OH (designed binder, disulfide 1-34, 20-44) [C17] | 4.16 |
| Ac-CEYDEEFFAGLKRLRGGDICYYIKKKFDKVPDLCIKEILDKLGC-OH (designed binder, disulfide 1-34, 20-44) [C5] | 18.9 |
| {Biotin-PEG4″}-CEDDEEFFADLKRLRGGDICYYIKLKFDKVPDLCIKEILDKLGC (designed binder, disulfide 1-34, 20-44) [C2] | 58.9 |
| Ac-CEYDEEFFAGLKRLRRGDICYYIKKKFDKVPDLCIEEILDKLGC (designed binder, disulfide 1-34, 20-44) [C14] | 14.1 |
| Ac-CEYDEEFFAGLKRLRGGDICYYIKKKFPKVPDLCIEEILDKLGC-OH (designed binder, disulfide 1-34, 20-44) [C19] | 10.8 |
| Ac-CEYDEEFFAGLKRLRGTDICYYIKKKFDKVPDLCIEEILDKLGC-OH (designed binder, disulfide 1-34, 20-44) [C22] | 12.8 |
| Ac-CEYDEEFFEGLKRLRGGDICYYIKKKFKKVPDLCIEEILDKLGC-OH (designed binder, disulfide 1-34, 20-44) [C26] | 5.04 |
| H-CEDDFQFFADLKRLRGGDICYYIRLKFDKVPDLCIKEILDKLGC-OH (designed binder, disulfide 1-34, 20-44) [C4] | 14.4 |
| {FITC}-CEYDEEFFAGLKRLRGGDICYYIKKKFDKVPDLCIEEILDKLGC-OH (designed binder, disulfide 1-34, 20-44) [C10] | 37.6 |
| H-CEYDEEFFAGLKRLRGGDICYYIKKKFDKVPDLCIKEILDKLGC-OH (designed binder, disulfide 1-34, 20-44) [C3] | 9.68 |
| Ac-CEYDEEFFNGLKRLRRGDICYYIKKKFDKVPDLCIEEILDKLGC-OH (designed binder, disulfide 1-34, 20-44) [C15] | 12.2 |
| Ac-CEYDEEFFNGLHRLRRGDICYYIKKKFKKVPDLCIEEILDKLGC-OH (designed binder, disulfide 1-34, 20-44) [C18] | 38.2 |
| Ac-CEYDEEFFAGLHRLRGTDICYYIKKKFDKVPDLCIEEILDKLGC-OH (designed binder, disulfide 1-34, 20-44) [C23] | 18.5 |
| Ac-CEYDEEFFNGLKRLRGGDICYYIKKKFDKVPDLCIEEILDKLGC-OH (designed binder, disulfide 1-34, 20-44) [C13] | 6.01 |
| Ac-CEYDEEFFAGLHRLRGGDICYYIKKKFDKVPDLCIEEILDKLGC-OH (designed binder, disulfide 1-34, 20-44) [C20] | 22.1 |
| Ac-CEDDFQFFADLKRLRGGDICYYIRLKFDKVPDLCIKEILDKLGC-OH (designed binder, disulfide 1-34, 20-44) [C6] | 17.1 |
| Ac-CEYDEEFFAGLHRLRGTDICYYIKKKFPKVPDLCIEEILDKLGC-OH (designed binder, disulfide 1-34, 20-44) [C24] | 84.4 |
| Ac-CEYDEEFFKGLKRLRGGDICYYIKKKFKKVPDLCIEEILDKLGC-OH (designed binder, disulfide 1-34, 20-44) [C25] | 3.75 |

| Binder | Kd [nM] |
| --- | --- |
| {DTPA-PEG4″}-CEYDEEFFAGLKRLRGGDICYYIKKKFDKVPDLCIEEILDKLGC-OH (designed binder, disulfide 1-34, 20-44) [C11] | 6.86 |
| {Biotin-PEG4″}-CEYDEQFFTALKRLRGADICEYIQASFQYLPGLCIEEILDNLGCS-OH (designed binder, disulfide 1-34, 20-44) [C183] | 1.2 |
| {Biotin-PEG4″}-CEYDEEFFTALKRLRGGDICDYIQASFQYLPGECIEEILQNLGCS-OH (designed binder, disulfide 1-34, 20-44) [C205] | 2.1 |
| {Biotin-PEG4″}-CEYDEQFFTALKRLRGADICDYIQASFQYLPGLCIEEILDNLGCS-OH (designed binder, disulfide 1-34, 20-44) [C194] | 1.1 |
| {Biotin-PEG4″}-CEYDEQFFTALKRLRGDDICSYIQASFQYLPGLCIEEILDNLGCS (designed binder, disulfide 1-34, 20-44) [C186] | 1.7 |
| {Biotin-PEG4″}-CDYDEEFFTALKRLRGDDICEYIQASFQYLPGLCIEEILDNLGCS-OH (designed binder, disulfide 1-34, 20-44) [C191] | 1.4 |
| {Biotin-PEG4″}-CDYDEQFFTALKRLRGGDICEYIQASFQYLPGECIEEILDNLGCS (designed binder, disulfide 1-34, 20-44) [C210] | 1.54 |
| {Biotin-PEG4″}-CDYDEQFFTALKRLRGGDICEYIQASFQYLPGQCIEEILDNLGCS (designed binder, disulfide 1-34, 20-44) [C211] | 1.19 |
| {Biotin-PEG4″}-CEYDEEFFTALKRLRGGDICEYIQASFQYLPGECIEEILQNLGCS-OH (designed binder, disulfide 1-34, 20-44) [C204] | 1.98 |
| {Biotin-PEG4″}-CDYDEQFFTALKRLRGADICEYIQASFQYLPGQCIEEILDNLGCS (designed binder, disulfide 1-34, 20-44) [C209] | 1.25 |
| {Biotin-PEG4″}-CDYDEEFFTALKRLRGGDICEYIQASFQYLPGLCIEEILDNLGCS-OH (designed binder, disulfide 1-34, 20-44) [C188] | 1.6 |
| {Biotin-PEG4″}-CEYDEEFFTALKRLRGGDICDYIQASFQYLPGECIEEILDNLGCS-OH (designed binder, disulfide 1-34, 20-44) [C203] | 2.3 |
| {Biotin-PEG4″}-CDYDEEFFTALKRLRGGDICSYIQASFQYLPGLCIEEILDNLGCS-OH (designed binder, disulfide 1-34, 20-44) [C189] | 1.1 |
| {Biotin-PEG4″}-CDYDEQFFTALKRLRGDDICEYIQASFQYLPGLCIEEILDNLGCS-OH (designed binder, disulfide 1-34, 20-44) [C193] | 1 |
| {Biotin-PEG4″}-CEYDEEFFTALKRLRGGDICDYIQASFQYLPGLCIEEILDNLGCS-OH (designed binder, disulfide 1-34, 20-44) [C200] | 2 |
| {Biotin-PEG4″}-CEYDEEFFTALKRLRGGDICEYIQASFQYLPGECIEEILDNLGCS (designed binder, disulfide 1-34, 20-44) [C202] | 2.2 |
| {Biotin-PEG4″}-CEYDEEFFTALKRLRGGDICEYIQAAFQYLPGLCIEEILDNLGCS-OH (designed binder, disulfide 1-34, 20-44) [C198] | 2.3 |
| {Biotin-PEG4″}-CEYDEQFFTALKRLRGGDICSYIQASFQYLPGLCIEEILDNLGCS (designed binder, disulfide 1-34, 20-44) [C184] | 2.5 |
| {Biotin-PEG4″}-CDYDEQFFTALKRLRGADICEYIQASFQYLPGLCIEEILDNLGCS-OH (designed binder, disulfide 1-34, 20-44) [C207] | 1.08 |
| {Biotin-PEG4″}-CDYDEEFFTALKRLRGDDICSYIQASFQYLPGLCIEEILDNLGCS-OH (designed binder, disulfide 1-34, 20-44) [C192] | 1.3 |
| {Biotin-PEG4″}-CEYDEEFFTALKRLRGADICDYIQASFQYLPGLCIEEILDNLGCS-OH (designed binder, disulfide 1-34, 20-44) [C195] | 2.3 |
